Laboratory results as given in PMC9782470, “Clickable C-Glycosyl Scaffold for the Development of a Dual Fluorescent and [^18F]fluorinated Cyanine-Containing Probe and Preliminary In Vitro/Vivo Evaluation by Fluorescence Imaging” (Pharmaceuticals, 2022).

Columns and labels:
[1] = Solubility in aqueous solution; type: physicochemical; details: result in words
[2] = Absorption and fluorescence measurements; type: physicochemical; details: for relative fluorescence quantum yield Φfluo: PBS pH 7.4, relative to commercial Cy5.Cl, λex = 640 nm, absorbance lower than 0.1; for Stokes shift Δs fluo / λem / λabs: aqueous PBS buffer 0.01 M, pH 7.4, T = 298 K; for λabs: diluted solution (µM)
Method: Photophysical properties (absorption, excitation, emission, and relative fluorescence quantum yield) of compounds 23 and 24 were measured in an aqueous PBS buffer solution (pH = 7.4, T = 298 K) and compared to the commercially available Cy5 to detect any potential degradation that could occur during the synthesis and purification steps. […] (λabs/λem = 648/662 nm, Δs fluo = 326 cm^−1 for 23, λabs/λem = 644/658 nm, Δs fluo = 330 cm^−1 for 24).
Absorption spectra were recorded in diluted solution (µM) in an aqueous PBS buffer (0.01 M, pH 7.4). Fluorescence quantum yields Φfluo were measured in diluted solutions with an absorbance lower than 0.1 using the following equation: ϕfluo, x=ϕfluo,ref(Gradx/Gradref)(nx2/nref2) where Φfluo is the fluorescence quantum yield; Grad is the gradient from the plot of integrated fluorescence intensity vs. absorbance; n the refractive index of the solvent; and the subscripts x and ref denote sample and reference. The fluorescence quantum yields of 23 and 24 were measured relative to the commercial Cy5.Cl in PBS for which Φfluo,ref = 0.13 [36]. The excitation of the reference and sample compounds was performed at the same wavelength (λex = 640 nm).

[3] = target: T1, αvβ3 integrin (Homo sapiens, UniProt P05106+P06756); experiment: Integrin αvβ3 solid-phase binding assay (competition with coated vitronectin); details: coated human vitronectin 1 µg/mL, integrin αvβ3 2 µg/mL, compounds 1.6 nM–20 µM, 1 h room temperature, OD 450 nm, 3 independent series in duplicate, ± SD in Figure 2, read-out: IC50, binding of αvβ3 integrin onto vitronectin
T1 construct: purchased Bio-techne, Lille, France
Method: The affinity of the compounds for integrin protein was evaluated in terms of the half maximal inhibitory concentration (IC50 values) using a solid-phase assay, as previously described by Tobias G. Kapp et al.. Briefly, the surface of Maxisorp microplates (NUNC, ThermoFicher Scientific, Paris, France) was coated with 1 µg/mL human vitronectin (Bio-techne, Lille, France) overnight at +4 °C. The non-specific sites were blocked with a TSB buffer (20 mM Tris-HCl, 150 mM NaCl, 1 mM CaCl2, 1 mM MgCl2, 1 mM MnCl2, pH 7.5, 1% BSA) (Sigma-Aldrich, Saint-Quentin-Fallavier, France) for 1 h at 37 °C. […] After 1 h incubation at room temperature, the plates were washed, and the amount of bound integrin was stained by incubation with 2 µg/mL of mouse anti-human CD51/61 (BD Pharmingen, Paris, France) and 1 µg/mL of anti-mouse IgG horseradish peroxidase conjugate antibody (Bio-techne, France). The enzymatic reaction was carried out in the dark by the addition of the enzyme substrate (Bio-techne, France) and stopped after 10 min by the addition of H2SO4 (Stop Solution, Bio-techne, France). The optical densities were measured at 450 nm. The values were blank subtracted, and the results were expressed as relative absorbance percentage in comparison to the wells containing only integrin αvβ3.
Affinities were estimated from 3 independent series performed in duplicate as IC50 values (i.e., the concentration of the compounds that displaced 50% of integrin binding calculated using one-site fit log-IC50 non-linear analysis regression using the GraphPad Prism 6 software (v 6.05, USA)).
Figure 2 Solid-phase binding assay.

[4] = test system: U-87 MG cells; experiment: Cellular uptake, quantification of Cy5 incorporation; type: cell-based, human; details: 24 h of incubation; Cy5 fluorescence of DMSO cell lysate (λex 645, λem 680 nm), calibration curve of each compound; n = 3
Method: Cellular uptake was evaluated using a confocal microscopy on U-87 MG spheroids after 1, 4, and 24 h of exposure with conjugates 23 and 24 and c(RGDfK)-Cy5 (25) at 1 µM. The fluorescence signal appeared to be stable over time and the distribution of the compounds was homogeneous over all cells and throughout the spheroids (Figure 3A). These three compounds were localized rapidly in the cell cytoplasm due to receptor internalization after ligand binding. As expected from photophysical properties, the fluorescence signal was higher for compound 24 compared to 23. […] The amount of compounds seemed to decrease slightly at 4 h but stayed relatively stable until 24 h and represented 25.8, 14.7, and 28.6 pmoles/10^6 cells, respectively, for compounds 23, 24 and 25. […]
U-87 MG cells were seeded in 12 multi-well plates at 10 × 10^4 cells/cm^2 and cultivated for 48 h. […] The fluorescence signals of Cy5 in the samples were measured in duplicate at an excitation wavelength of 645/9 nm and an emission wavelength of 680/20 nm (Tecan Infinite M200 Pro spectrofluorometer, Tecan, Männedorf, Switzerland). The fluorescence signals of known concentrations of Cy5-conjugates diluted in DMSO were used to draw a standard calibration curve. The concentration of Cy5 present in the samples (nM) was determined from the linear regression analysis of the standard calibration curve (Equation (1)). […] The results of the cellular uptake were expressed as the concentration of Cy5 (nM) incorporated per one million of cells (Equation (2)). […] (nM) = f (Fluorescence Intensity)(1) [Cy5] […]
Figure 3 Cellular uptake of fluorescent conjugates 23 and 24. […] The intrinsic fluorescence of the compounds corresponds to Cyanine 5 (red fluorescence, λex 631/28 nm, λem 692/40 nm). […] (B) Quantification of Cy5 incorporation by U-87 MG cells at 1, 4, and 24 h of incubation. The amount of each compound was calculated using the fluorescence of Cy5 extrapolated from the calibration curves of each compound and normalized to 10^6 cells. n = 3.

[5] = test system: orthotopic U-87 MG brain tumor; type: in vivo, female athymic nude mice; details: 24 h after intravenous administration of 0.5 nmoles; NIRF imaging; average of ratio uptake
Method: (§1) In order to evaluate the in vivo biodistribution and tumor uptake of compound 24, which has the best photophysical and solubility properties in comparison to compound 23, mice bearing ectopic or orthotopic brain tumors were imaged in NIRF using a fluorescent small animal imager. […] Animal experiments were performed in accordance with the protocols approved by the French Ministry of Research after a review by the local animal protection and use committee (APAFIS# 30902). For ectopic tumor biodistribution, a U-87 MG tumor model was established by subcutaneous injection of U-87 MG cells (2 × 10^6 in 100 µL of 5% glucose solution) into the front right flank of female athymic nude mice (Charles Rivers, Wilmington, MA, USA). The mice were subjected to imaging studies when the tumor volume reached 500 mm^3 (3–4 wk after inoculation) at 1, 4, 6, and 24 h after the intravenous administration of the compounds 24 and 25 at 0.5 nmoles in 100 µL of water for injections mixed with ethanol (20% EtOH/80% water). For brain tumor imaging, U-87 MG spheroids of approximatively 500 µm diameter were implanted in the cortex of the right hemisphere and imaged 24 h after the administration of 0.5 nmoles of the compound 24 or 25. In the same manner, major organs were harvested and subjected to small animal NIRF imaging (Fluorvivo, Indec Biosystem, Los Altos, CA, USA). A customized filter set (excitation, 510–550 nm; emission, 630–690 nm) was used for data acquisition. All fluorescence images were acquired with a 1-s exposure. The fluorescence intensity of each tissue was measured after subtraction of the background signal from an ROI of the same size and shape drawn over an area without any tissue using imageJ. Figure 4 Biodistribution of compounds 24 and 25 in tumors and organs. (A) Kinetic distribution of compounds 24 and 25 in ectopic U-87 MG tumors at 1, 4, 6, and 24 h (representative images of the whole mice with the solid arrows showing the ectopic tumors at 24 h). (B) Biodistribution of the compounds in major organs at 24 h after their administration. […] An average of ratio uptake was calculated. […]

[6] = test system: ectopic U-87 MG tumors; type: in vivo, female athymic nude mice
Method: as §1

[7] = cited from earlier work
Method: Photophysical properties (absorption, excitation, emission, and relative fluorescence quantum yield) of compounds 23 and 24 were measured in an aqueous PBS buffer solution (pH = 7.4, T = 298 K) and compared to the commercially available Cy5 to detect any potential degradation that could occur during the synthesis and purification steps. […] (λabs/λem = 648/662 nm, Δs fluo = 326 cm^−1 for 23, λabs/λem = 644/658 nm, Δs fluo = 330 cm^−1 for 24). Conjugation of the ... || Absorption spectra were recorded in diluted solution (µM) in an aqueous PBS buffer (0.01 M, pH 7.4). Fluorescence quantum yields Φfluo were measured in diluted solutions with an absorbance lower than 0.1 using the following equation: ϕfluo, x=ϕfluo,ref(Gradx/Gradref)(nx2/nref2) where Φfluo is the fluorescence quantum yield; Grad is the gradient from the plot of integrated fluorescence intensity vs. absorbance; n the refractive index of the solvent; and the subscripts x and ref denote sample and reference. The fluorescence quantum yields of 23 and 24 were measured relative to the commercial Cy5 ...

Row | SMILES | solubility in aqueous solution [1] | relative fluorescence quantum yield Φfluo [2] [%] | Stokes shift Δs fluo [2] [cm⁻¹] | λem [2] [nm] | λabs [2] [nm] | IC50 [3] [nM] | amount of compound incorporated by U-87 MG cells [4] [pmoles/10^6 cells] | ratio of fluorescence uptake, orthotopic brain tumor to healthy brain [5] [fold] | ratio of fluorescence uptake, ectopic tumor to healthy brain ([6]; 24 h after intravenous administration of 0.5 nmoles, NIRF imaging, average of ratio uptake) [fold] | route of elimination ([6]; mouse, in vivo) | fluorescence quantum yield Φfluo of the reference ([7]; PBS) [%] | fluorescence quantum yield Φfluo,ref ([7]; in PBS, as fraction)
1 | CN1\C(=C/C=C/C=C/C2=[N+](CCCCCC(=O)NCCCn3cc(COCC[C@H]4O[C@H](CF)[C@@H](OCc5cn(CCCCCC(=O)NCCCC[C@@H]6NC(=O)[C@@H](Cc7ccccc7)NC(=O)[C@H](CC(=O)O)NC(=O)CNC(=O)[C@H](CCCNC(=N)N)NC6=O)nn5)[C@H]4OCc4cn(CCCCCC(=O)NCCCC[C@@H]5NC(=O)[C@@H](Cc6ccccc6)NC(=O)[C@H](CC(=O)O)NC(=O)CNC(=O)[C@H](CCCNC(=N)N)NC5=O)nn4)nn3)c3ccccc3C2(C)C)C(C)(C)c2ccccc21 [Compound 23] | poor solubility | 8 | 326 | 662 | 648 | 10 | 25.8 | – | – | – | – | –
2 | CN1\C(=C/C=C/C=C/C2=[N+](CCCCCC(=O)NCCCn3cc(COCC[C@H]4O[C@H](CF)[C@@H](OCc5cn(CCOCCOCCOCCOCCC(=O)NCCCC[C@@H]6NC(=O)[C@@H](Cc7ccccc7)NC(=O)[C@H](CC(=O)O)NC(=O)CNC(=O)[C@H](CCCNC(=N)N)NC6=O)nn5)[C@H]4OCc4cn(CCOCCOCCOCCOCCC(=O)NCCCC[C@@H]5NC(=O)[C@@H](Cc6ccccc6)NC(=O)[C@H](CC(=O)O)NC(=O)CNC(=O)[C@H](CCCNC(=N)N)NC5=O)nn4)nn3)c3ccccc3C2(C)C)C(C)(C)c2ccccc21 [Compound 24] | – | 14 | 330 | 658 | 644 | 16 | 14.7 | 40 | 100 | urinary tract and liver metabolism | – | –
3 | CN1C(=CC=CC=CC2=[N+](CCCCCC(=O)NCCCC[C@@H]3NC(=O)[C@@H](Cc4ccccc4)NC(=O)[C@H](CC(=O)O)NC(=O)CNC(=O)[C@H](CCCNC(=N)N)NC3=O)c3ccccc3C2(C)C)C(C)(C)c2ccccc21 [Compound 25] | – | – | – | – | – | 8540 | 28.6 | – | – | – | – | –
4 | CN1/C(=C/C=C/C=C/C2=[N+](CCCCCC(=O)O)c3ccccc3C2(C)C)C(C)(C)c2ccccc21 [Cy5] | – | – | – | – | – | – | – | – | – | – | 13 | 0.13
